Drawing on US20200024322A1 (Eli Lilly, published 2020), this text covers Ki for 4 molecules.

One test deals with T1, human glucagon receptor (human, UniProt P47871 26-477).
T1 construct: whole, on cells; Used as crude membranes of stably transfected HEK293 cells; also called hGcgR; hGLcgR
The test can be described thus: SPA, [125I]-Gcg displacement, hGcgR membranes.

The next test concerns the target T2, human GLP-1 receptor (human, UniProt P43220 24-463).
T2 construct: whole, on cells; Used as crude membranes of stably transfected HEK293 cells; also called hGLP1R; hGLP-1R
Kind of test: SPA, [125I]-GLP-1 displacement, hGLP-1R membranes.

The target in a further test is T3, human GIP receptor (human, UniProt P48546 22-466).
T3 construct: whole, on cells; Used as crude membranes of stably transfected CHO cells; also called hGIPR
T3 sequence (looked up): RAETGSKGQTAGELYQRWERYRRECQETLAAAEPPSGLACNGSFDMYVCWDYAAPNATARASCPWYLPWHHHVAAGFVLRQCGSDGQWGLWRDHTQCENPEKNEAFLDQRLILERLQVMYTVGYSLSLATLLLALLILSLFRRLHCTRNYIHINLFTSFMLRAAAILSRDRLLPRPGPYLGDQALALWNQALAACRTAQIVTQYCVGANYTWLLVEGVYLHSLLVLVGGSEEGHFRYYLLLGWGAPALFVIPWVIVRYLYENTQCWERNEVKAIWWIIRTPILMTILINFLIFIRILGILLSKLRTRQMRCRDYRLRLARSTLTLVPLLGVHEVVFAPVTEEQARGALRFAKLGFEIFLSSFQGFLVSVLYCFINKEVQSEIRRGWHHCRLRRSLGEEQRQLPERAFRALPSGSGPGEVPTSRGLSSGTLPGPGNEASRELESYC
Kind of test: SPA, [125I]-GIP displacement, hGIPR membranes.

Numbered stars: 1 amine (or outer) side, 2 acyl side, 3 side chain; on linkers, the order of the positions; unused ones are H or OH. Square brackets hold non-standard residues; d marks the D form. Side chains are listed from the residue outwards. Ends that are not written are not given here. * marks the point of attachment. C20 diacid = O=C(O)CCCCCCCCCCCCCCCCCCC(=O)*; γGlu = O=C(O)[C@H](CCC(=O)[*:2])N[*:1]; Desaminohistidyl = O=C(CCc1c[nH]cn1)*; αMeF = C[C@](N)(Cc1ccccc1)C(=O)O; αMeL = CC(C)C[C@](C)(N)C(=O)O; cTA = not defined here; AEEA = NCCOCCOCC(=O)O; Aib = CC(C)(N)C(=O)O

T1 sequence (P47871 26-477): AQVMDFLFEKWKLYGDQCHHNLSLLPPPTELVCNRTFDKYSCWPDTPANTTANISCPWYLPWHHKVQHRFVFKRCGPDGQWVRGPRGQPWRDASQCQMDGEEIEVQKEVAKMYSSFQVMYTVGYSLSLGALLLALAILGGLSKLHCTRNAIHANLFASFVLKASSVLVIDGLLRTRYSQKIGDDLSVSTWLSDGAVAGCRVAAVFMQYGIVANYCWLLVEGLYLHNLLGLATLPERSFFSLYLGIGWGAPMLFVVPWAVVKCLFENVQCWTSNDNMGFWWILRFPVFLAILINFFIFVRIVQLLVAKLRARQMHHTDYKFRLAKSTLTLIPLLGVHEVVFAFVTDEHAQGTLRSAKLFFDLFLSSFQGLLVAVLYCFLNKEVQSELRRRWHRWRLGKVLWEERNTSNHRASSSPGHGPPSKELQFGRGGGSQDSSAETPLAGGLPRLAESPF

B1: Example 120 (peptide)
peptide: Y[Aib][cTA]GT[αMeF]TSDYSI[αMeL]LDEK([AEEA-AEEA-γGlu-C20 diacid])AQ[Aib]AFIEYLIEGGPSSGAPPPS-NH2
modifications: reading uncertain
The term Ki denotes a dissociation constant, usually derived from enzyme kinetics or from competition with a known ligand. High values mean weaker binding, low ones tighter binding. As for B1, the Ki with human glucagon receptor turned out to be 93.6 nM; with human GLP-1 receptor, 11.7 nM; with human GIP receptor, 0.11 nM.

B2: Example 117 (peptide)
peptide: Y[Aib]EGT[αMeF]TSDYSI[Aib]LDEK([AEEA-AEEA-γGlu-C20 diacid])AQ[Aib]AFIEYLIEGGPSSGAPPPS-NH2
modifications: N-terminus assumed
SMILES: CC[C@H](C)[C@H](NC(=O)[C@H](CC(C)C)NC(=O)[C@H](Cc1ccc(O)cc1)NC(=O)[C@H](CCC(=O)O)NC(=O)[C@@H](NC(=O)[C@H](Cc1ccccc1)NC(=O)[C@H](C)NC(=O)C(C)(C)NC(=O)[C@H](CCC(N)=O)NC(=O)[C@H](C)NC(=O)[C@H](CCCCNC(=O)COCCOCCNC(=O)COCCOCCNC(=O)CC[C@H](NC(=O)CCCCCCCCCCCCCCCCCCC(=O)O)C(=O)O)NC(=O)[C@H](CCC(=O)O)NC(=O)[C@H](CC(=O)O)NC(=O)[C@H](CC(C)C)NC(=O)C(C)(C)NC(=O)[C@@H](NC(=O)[C@H](CO)NC(=O)[C@H](Cc1ccc(O)cc1)NC(=O)[C@H](CC(=O)O)NC(=O)[C@H](CO)NC(=O)[C@@H](NC(=O)[C@](C)(Cc1ccccc1)NC(=O)[C@@H](NC(=O)CNC(=O)[C@H](CCC(=O)O)NC(=O)C(C)(C)NC(=O)[C@@H](N)Cc1ccc(O)cc1)[C@@H](C)O)[C@@H](C)O)[C@@H](C)CC)[C@@H](C)CC)C(=O)N[C@@H](CCC(=O)O)C(=O)NCC(=O)NCC(=O)N1CCC[C@H]1C(=O)N[C@@H](CO)C(=O)N[C@@H](CO)C(=O)NCC(=O)N[C@@H](C)C(=O)N1CCC[C@H]1C(=O)N1CCC[C@H]1C(=O)N1CCC[C@H]1C(=O)N[C@@H](CO)C(N)=O
On to B2, for which the Ki was 192 nM with human glucagon receptor, 6.96 nM with human GLP-1 receptor and 0.0497 nM in the test with human GIP receptor.

B3: Example 107 (peptide)
peptide: XXEGTFTSDYSILLDKKAQXAFIEYLIEGGPSSGAPPPS
modifications: DesTyr1; Aib2; K17((2-[2-(2-Amino-ethoxy)-ethoxy]-acetyl)2-(γ-Glu)-CO-(CH2)18-CO2H); Aib20; C-terminal NH2
Consider B3, for which the figures for the Ki in the test with human glucagon receptor, with human GLP-1 receptor and with human GIP receptor were 303 nM, 0.867 nM and 0.0425 nM, respectively.

B4: Example 106 (peptide)
peptide: [Desaminohistidyl][Aib]EGTFTSDYSILLDKK([AEEA-AEEA-γGlu-C20 diacid])AQ[Aib]AFIEYLIEGGPSSGAPPPS-NH2
SMILES: CC[C@H](C)[C@H](NC(=O)[C@H](CC(C)C)NC(=O)[C@H](Cc1ccc(O)cc1)NC(=O)[C@H](CCC(=O)O)NC(=O)[C@@H](NC(=O)[C@H](Cc1ccccc1)NC(=O)[C@H](C)NC(=O)C(C)(C)NC(=O)[C@H](CCC(N)=O)NC(=O)[C@H](C)NC(=O)[C@H](CCCCNC(=O)COCCOCCNC(=O)COCCOCCNC(=O)CC[C@H](NC(=O)CCCCCCCCCCCCCCCCCCC(=O)O)C(=O)O)NC(=O)[C@H](CCCCN)NC(=O)[C@H](CC(=O)O)NC(=O)[C@H](CC(C)C)NC(=O)[C@H](CC(C)C)NC(=O)[C@@H](NC(=O)[C@H](CO)NC(=O)[C@H](Cc1ccc(O)cc1)NC(=O)[C@H](CC(=O)O)NC(=O)[C@H](CO)NC(=O)[C@@H](NC(=O)[C@H](Cc1ccccc1)NC(=O)[C@@H](NC(=O)CNC(=O)[C@H](CCC(=O)O)NC(=O)C(C)(C)NC(=O)CCc1c[nH]cn1)[C@@H](C)O)[C@@H](C)O)[C@@H](C)CC)[C@@H](C)CC)C(=O)N[C@@H](CCC(=O)O)C(=O)NCC(=O)NCC(=O)N1CCC[C@H]1C(=O)N[C@@H](CO)C(=O)N[C@@H](CO)C(=O)NCC(=O)N[C@@H](C)C(=O)N1CCC[C@H]1C(=O)N1CCC[C@H]1C(=O)N1CCC[C@H]1C(=O)N[C@@H](CO)C(N)=O
On to B4, for which the Ki was 515 nM with human glucagon receptor, 1.2 nM with human GLP-1 receptor and 0.179 nM with human GIP receptor.
